According to paper PMC8230603, “Rad52 Oligomeric N-Terminal Domain Stabilizes Rad51 Nucleoprotein Filaments and Contributes to Their Protection against Srs2”:

Target: Rad52-FLAG (Saccharomyces cerevisiae, UniProt P06778 1-471)
Assay: EMSA; 5 mM MgCl2; 10 mM Tris-HCl pH 8, 5 mM MgCl2, 100 mM NaCl, 37 °C, 10 min; 0.27 µM Cy5-DNA (nt per Fig 6 legend); 8% native PAGE
Details: protein: recombinant; tags: FLAG; chain copies: 10; label: 5'-Cy5 on strand 1; blunt

Chain of Rad52-FLAG (P06778 whole entry): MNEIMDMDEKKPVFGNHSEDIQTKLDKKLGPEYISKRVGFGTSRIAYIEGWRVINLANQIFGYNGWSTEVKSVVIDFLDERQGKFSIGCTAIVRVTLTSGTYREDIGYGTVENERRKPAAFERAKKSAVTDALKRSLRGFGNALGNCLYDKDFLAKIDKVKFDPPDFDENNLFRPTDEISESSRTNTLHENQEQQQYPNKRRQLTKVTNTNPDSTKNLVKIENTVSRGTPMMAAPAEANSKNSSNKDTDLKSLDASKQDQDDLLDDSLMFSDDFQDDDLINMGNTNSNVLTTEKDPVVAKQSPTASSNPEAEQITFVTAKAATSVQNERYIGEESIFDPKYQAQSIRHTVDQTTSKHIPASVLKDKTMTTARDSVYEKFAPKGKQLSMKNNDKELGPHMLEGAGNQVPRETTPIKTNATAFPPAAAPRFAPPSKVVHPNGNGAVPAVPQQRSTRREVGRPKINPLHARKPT

B1: XV2 dsDNA (dsDNA)
DNA 1: TGGGTGAACCTGCAGGTGGGCAAAGATGTCCTAGCAATGTAATCGTCAAGCTTTATGCCGTT
DNA 2: AACGGCATAAAGCTTGACGATTACATTGCTAGGACATCTTTGCCCACCTGCAGGTTCACCCA
binding result: binds
